Assay [1] concerns the target bovine histone H1, labelled with NT-647-NHS dye (bovine) (UniProt P02253). The assay can be described thus: MST.
Assay [2] deals with N-terminal cleavage product of SET (human, UniProt Q01105-2 17-175). The assay can be described thus: SEC. On the technique in general: SEC sorts molecules by how far they enter the pores of the column.

Consider 4 molecules from article doi:10.1101/2025.01.28.635311 (bioRxiv, 2025).

bovine histone H1, labelled with NT-647-NHS dye (bovine), sequence (P02253 whole entry): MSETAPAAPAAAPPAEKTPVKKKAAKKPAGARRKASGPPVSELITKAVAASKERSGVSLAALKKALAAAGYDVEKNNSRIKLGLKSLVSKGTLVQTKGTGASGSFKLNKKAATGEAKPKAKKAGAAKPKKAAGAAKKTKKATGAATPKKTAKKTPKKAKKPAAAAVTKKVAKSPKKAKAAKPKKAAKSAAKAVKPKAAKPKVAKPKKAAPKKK

What is called Kd is the equilibrium constant for the complex coming apart. Low readings indicate higher affinity, high ones lower affinity. For the molecule “SET-FL after cleavage by legumain (cleaved SET-FL) (from UniProt Q01105-2 17-175; Q01105-2 176-277) (complex)”, the Kd in assay [1] is 3000 nM.
For “full-length SET (SET-FL, 2–277) (from UniProt Q01105-2 2-277) (natural protein)”, the Kd in assay [1] turned out to be 3000 nM. This lies in the single-digit micromolar range.

B1: C-terminal cleavage product of SET-FL (domain or fragment, human, UniProt Q01105-2 176-277, looked up)
chain: KASRKRQHEEPESFFTWFTDHSDAGADELGEVIKDDIWPNPLQYYLVPDMDDEEGEGEEDDDDDEEEEGLEDIDEEGDEDEGEEDEDDDEGEEGEEDEGEDD
Consider B1, for which the binding result in assay [2] is “binds”.
For the molecule KASRKRQHEEPESFFTWFTDHSDAGADELGEVIKDDIWPNPLQYYLVPDM (domain or fragment, human, UniProt Q01105-2 176-225, looked up) [C-terminal cleavage product of SETΔC], in assay [2], the binding result was “binds”.
